The target of this test is T1, Human CDH6-ECD-His (human, UniProt P55285 54-615).
T1 construct: extracellular domain; Bought protein; also called human CDH6-ECD-His recombinant protein; Human CDH6-EC6D-His; not shown: His tag
T1 sequence (looked up): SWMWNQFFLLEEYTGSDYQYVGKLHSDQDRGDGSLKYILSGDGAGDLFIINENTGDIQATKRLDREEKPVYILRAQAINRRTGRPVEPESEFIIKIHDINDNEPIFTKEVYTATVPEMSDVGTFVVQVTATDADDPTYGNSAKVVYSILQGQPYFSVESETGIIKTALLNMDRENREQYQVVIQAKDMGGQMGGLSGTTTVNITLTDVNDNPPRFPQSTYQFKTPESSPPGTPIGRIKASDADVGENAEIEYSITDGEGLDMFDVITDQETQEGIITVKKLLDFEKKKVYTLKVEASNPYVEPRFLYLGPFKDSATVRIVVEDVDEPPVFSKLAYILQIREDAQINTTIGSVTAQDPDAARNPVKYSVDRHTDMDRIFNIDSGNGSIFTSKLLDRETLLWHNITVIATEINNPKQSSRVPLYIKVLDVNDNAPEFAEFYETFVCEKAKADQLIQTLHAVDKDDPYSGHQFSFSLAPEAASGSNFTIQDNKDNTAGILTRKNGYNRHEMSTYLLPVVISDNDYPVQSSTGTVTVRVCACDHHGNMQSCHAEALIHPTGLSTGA
As to the kind of experiment: ELISA, antigen coated at 1 ug/mL. The procedure: CDH9 and […] are the most closely related family members to CDH6. Binding of CL069707-H1L1 on human CDH6, CDH9 and CDH10 ECD domains were analyzed by ELISA Binding Assay. Human […], CDH9-ECD-His and CDH10-ECD-His antigens were obtained from Acro Biosystems, Inc. 100 μL of 1 μg/mL of the antigens diluted in PBS were added to 96 well plates and incubated in 4° C. overnight. The plates were washed 3 times with 300 μL of washing buffer. Then 100 μL/well of 1% BSA blocking reagent were added to the plates, and incubated at 37° C. for 1 h then the blocking reagent were discarded. A 3-fold serial dilution of CL069707-H1L1 was added to the plates and then incubated at 37° C. for 1 h. Then the plates were washed 3 times with 300 μL of washing buffer. 100 μL/well of HRP-conjugated anti-Human antibody diluted in 1% BSA were added to the plates and then incubated at 37° C. for 1 h. The plates were washed 3 times with 300 μL of washing buffer. 100 μL/well of TMB substrate were added to the plates and incubated for about 10 min in room temperature. Then the reaction was stopped with 100 μL/well of stopping solution. OD450 was read with a plate reader and the data were processed.
Background: ELISA stands for enzyme-linked immunosorbent assay.

The record followed here is US20250090677A1 (MULTITUDE THERAPEUTICS, published 2025).

B1: CL069707-H1L1 (antibody, human IgG1, kappa, V domains shown)
VH: EVQLVESGGGLVQPGGSLRLSCAASGFTFTTYAMNWVRQAPGKGLEWVARIRIKNNNYATYYADSVTDRFTISRDDSKNSLYLQMNSLKTEDTAVYYCVRPDYGNYGLAYWGQGTLVTVSS
VL: DIQLTQSPSSLSASVGDRVTITCSASSSISSHYLHWYQQKPGKSPKLLIYRSFYLASGVPSRFSGSGSGTDFTLTISSLQPEDFATYYCQQDIVPLTFGQGTKLEIKR
notes: Humanized IgG1/kappa, produced in 293 cells; also called humanized CL069707-H1L1
Usually EC50 stands for the concentration that produces a half-maximal response. With B1, the EC50 was found to be 0.1 nM.
